Reference: US20150098945A1 (Daiichi Sankyo, published 2015)
Where a chain is given by its changes, count along the chain named.

B1: humanized MAb1 antibody H-1143 (antibody, human IgG2, kappa, V domains shown)
VH: EVQLVESGGGLVQPGGSLRLSCAASGFTFSTYAMSWVRQAPGKGLEWVATISQGGTYTYYPDSVKGRFTISRDNAKNTLYLQMNSLRAEDTAVYYCARLIYYDYLDYWGQGTLVTVSS
VL: DIVMTQSPLSLPVTLGEPASISCRSSQSLENENKNLYLNWYLQKPGQSPQLLIYRVSNRFSGVPDRFSGSGSGTDFTLKISRVEAEDVGVYYCLQVTHVPWTFGPGTKVDIKR
notes: Human IgG2 / kappa constant regions; also called hMAb1-H2-type heavy chain + hMAb1-L2-type light chain
B2: humanized MAb1 antibody H-2140 (antibody, human IgG2, kappa, V domains shown)
VH: B1 VH with G44R
VL: B1 VL with E32S, K34G, L36T
notes: Human IgG2 / kappa constant regions; also called hMAb1-H4-type heavy chain + hMAb1-L1-type light chain
B3: humanized MAb1 antibody H-2143 (antibody, human IgG2, kappa, V domains shown)
VH: B1 VH with G44R
VL: B1 VL
notes: Human IgG2 / kappa constant regions; also called hMAb1-H4-type heavy chain + hMAb1-L2-type light chain

Target: T1, human ROBO2 (pCI-hROBO2-transfected HEK293 cells) (human)
T1 chain: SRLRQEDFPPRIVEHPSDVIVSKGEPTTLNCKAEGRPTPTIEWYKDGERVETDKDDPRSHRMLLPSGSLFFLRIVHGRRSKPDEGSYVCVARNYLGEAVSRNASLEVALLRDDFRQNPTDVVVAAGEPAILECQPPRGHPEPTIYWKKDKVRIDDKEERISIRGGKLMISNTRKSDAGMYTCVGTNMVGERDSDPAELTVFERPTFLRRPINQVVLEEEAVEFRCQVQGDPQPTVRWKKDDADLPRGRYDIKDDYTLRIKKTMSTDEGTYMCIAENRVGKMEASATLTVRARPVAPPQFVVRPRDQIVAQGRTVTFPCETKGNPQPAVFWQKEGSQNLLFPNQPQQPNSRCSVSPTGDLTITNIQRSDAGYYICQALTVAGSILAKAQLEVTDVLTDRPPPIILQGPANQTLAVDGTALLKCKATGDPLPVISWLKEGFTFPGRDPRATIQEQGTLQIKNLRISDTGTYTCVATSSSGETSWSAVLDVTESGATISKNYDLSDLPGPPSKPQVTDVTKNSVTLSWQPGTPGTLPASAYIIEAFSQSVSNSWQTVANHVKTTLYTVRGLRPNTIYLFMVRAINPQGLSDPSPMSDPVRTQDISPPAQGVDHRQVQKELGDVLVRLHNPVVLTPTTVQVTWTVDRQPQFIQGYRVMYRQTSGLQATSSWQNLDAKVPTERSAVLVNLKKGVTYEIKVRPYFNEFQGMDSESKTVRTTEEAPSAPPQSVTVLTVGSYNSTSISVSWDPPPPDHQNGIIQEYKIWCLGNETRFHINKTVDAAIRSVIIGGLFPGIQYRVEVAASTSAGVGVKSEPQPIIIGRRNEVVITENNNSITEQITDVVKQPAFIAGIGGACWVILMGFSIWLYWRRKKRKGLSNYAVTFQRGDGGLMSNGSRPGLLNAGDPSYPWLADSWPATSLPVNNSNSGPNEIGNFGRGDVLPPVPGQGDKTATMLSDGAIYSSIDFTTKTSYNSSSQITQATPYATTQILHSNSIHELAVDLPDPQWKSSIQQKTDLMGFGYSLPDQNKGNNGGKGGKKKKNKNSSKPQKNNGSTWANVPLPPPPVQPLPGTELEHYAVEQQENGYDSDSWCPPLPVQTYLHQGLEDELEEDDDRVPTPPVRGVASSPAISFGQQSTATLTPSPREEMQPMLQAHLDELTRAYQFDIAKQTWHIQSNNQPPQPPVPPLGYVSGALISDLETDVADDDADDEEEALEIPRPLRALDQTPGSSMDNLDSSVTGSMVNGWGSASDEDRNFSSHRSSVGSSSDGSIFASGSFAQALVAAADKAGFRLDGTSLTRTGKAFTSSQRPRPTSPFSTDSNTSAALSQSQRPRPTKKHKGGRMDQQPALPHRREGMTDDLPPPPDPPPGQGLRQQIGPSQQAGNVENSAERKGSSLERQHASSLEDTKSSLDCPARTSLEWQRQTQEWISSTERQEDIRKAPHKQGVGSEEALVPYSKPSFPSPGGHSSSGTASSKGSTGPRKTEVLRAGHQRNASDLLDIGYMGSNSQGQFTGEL
Test: flow cytometry (FC500), HEK293 cells transfected with pCI-hROBO2, FITC goat anti-human IgG Fc; control histogram IgG (human IgG)
B1: no binding (tested: 10 µg/mL). B2: no binding (tested: 10 µg/mL). B3: no binding (tested: 10 µg/mL).
